{"source": "paper PMC11322666", "about": "“UPF3B modulates endoplasmic reticulum stress through interaction with inositol-requiring enzyme-1α” (Cell Death & Disease, 2024)", "key": {"[1]": {"target": "T1, IRE1α^S724A (human, UniProt O75460 19-977, S724A)", "T1 construct": "IRE1α, human, point mutant; source: HEK293T and U2OS, transfected, in lysate", "T1 sequence (O75460 19-977 S724A)": "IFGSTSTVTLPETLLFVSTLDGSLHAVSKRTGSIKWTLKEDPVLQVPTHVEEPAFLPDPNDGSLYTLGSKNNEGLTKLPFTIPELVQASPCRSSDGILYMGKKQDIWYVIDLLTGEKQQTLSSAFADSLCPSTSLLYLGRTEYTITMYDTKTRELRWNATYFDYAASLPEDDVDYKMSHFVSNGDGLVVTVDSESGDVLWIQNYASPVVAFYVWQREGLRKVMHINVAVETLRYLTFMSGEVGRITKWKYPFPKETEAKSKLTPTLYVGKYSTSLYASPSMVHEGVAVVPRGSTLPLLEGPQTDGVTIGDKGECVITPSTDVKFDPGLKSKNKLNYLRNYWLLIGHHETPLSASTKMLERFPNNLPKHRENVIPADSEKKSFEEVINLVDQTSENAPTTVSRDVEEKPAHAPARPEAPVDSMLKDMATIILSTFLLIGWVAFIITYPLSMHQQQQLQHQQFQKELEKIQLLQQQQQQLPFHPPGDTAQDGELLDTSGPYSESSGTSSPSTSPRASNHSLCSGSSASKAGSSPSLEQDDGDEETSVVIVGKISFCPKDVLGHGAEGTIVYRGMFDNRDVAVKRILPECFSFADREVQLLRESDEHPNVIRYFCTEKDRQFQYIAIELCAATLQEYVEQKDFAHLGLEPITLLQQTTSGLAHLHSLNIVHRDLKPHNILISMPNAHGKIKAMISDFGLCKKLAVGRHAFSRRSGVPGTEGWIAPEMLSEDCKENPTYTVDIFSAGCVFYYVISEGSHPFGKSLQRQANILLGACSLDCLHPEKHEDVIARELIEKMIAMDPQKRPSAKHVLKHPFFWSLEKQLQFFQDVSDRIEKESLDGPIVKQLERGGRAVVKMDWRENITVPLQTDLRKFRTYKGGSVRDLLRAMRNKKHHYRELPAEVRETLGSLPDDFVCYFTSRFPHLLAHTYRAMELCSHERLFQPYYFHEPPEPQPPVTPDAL", "assay": "co-IP; lysates of transfected HEK293T or U2OS cells (24 h) in NETN buffer (20 mM Tris-HCl pH 8.0, 100 mM NaCl, 1 mM EDTA, 0.5% NP-40), IP with anti-Flag (M2) magnetic beads or the indicated antibodies, western blot; Fig. 3G two-way", "details": "partners not purified"}, "[2]": {"target": "T2, inositol-requiring enzyme-1α (IRE1α), endogenous (human (endogenous in HEK293T and U2OS), UniProt O75460 19-977)", "T2 construct": "inositol-requiring enzyme-1α (IRE1α), endogenous in HEK293T and U2OS cells; source: endogenous, HEK293T and U2OS lysates", "T2 sequence (O75460 19-977)": "as the sequence (O75460 19-977 S724A) above, with A706S counted along it", "assay": "co-IP; endogenous proteins, lysates of HEK293T and U2OS cells, IP with the indicated antibodies (anti-IRE1α), IgG as negative control; also with RNase A pre-treatment of lysates, in shUPF1 and shUPF2 cells, after STF-083010 or Kira6 (10 or 50 μM, 6 h), BiP overexpression, siBiP, UPF3B overexpression", "details": "partners not purified"}}}
{"binder": "UPF3B, endogenous (natural protein, human (endogenous in HEK293T and U2OS), UniProt Q9BZI7 1-483, looked up, UPF3B, endogenous in HEK293T and U2OS cells; also called up-frameshift 3B; source: endogenous, HEK293T and U2OS lysates) MKEEKEHRPKEKRVTLLTPAGATGSGGGTSGDSSKGEDKQDRNKEKKEALSKVVIRRLPPTLTKEQLQEHLQPMPEHDYFEFFSNDTSLYPHMYARAYINFKNQEDIILFRDRFDGYVFLDNKGQEYPAIVEFAPFQKAAKKKTKKRDTKVGTIDDDPEYRKFLESYATDNEKMTSTPETLLEEIEAKNRELIAKKTTPLLSFLKNKQRMREEKREERRRREIERKRQREEERRKWKEEEKRKRKDIEKLKKIDRIPERDKLKDEPKIKVHRFLLQAVNQKNLLKKPEKGDEKELDKREKAKKLDKENLSDERASGQSCTLPKRSDSELKDEKPKRPEDESGRDYREREREYERDQERILRERERLKRQEEERRRQKERYEKEKTFKRKEEEMKKEKDTLRDKGKKAESTESIGSSEKTEKKEEVVKRDRIRNKDRPAMQLYQPGARSRNRLCPPDDSTKSGDSAAERKQESGISHRKEGGEE", "values": [{"measurement": "fold change of the co-precipitate against IRE1α^WT", "setting": "[1]", "result": 3.2, "unit": "fold"}, {"measurement": "fold change of the co-precipitate in Kira6-treated against control cells", "setting": "[2]", "result": 3.9, "unit": "fold"}]}
